The record followed here is patent publication US20240000885A1 (VANDERBILT UNIVERSITY, published 2024).

Assay [1] concerns the target MHV M tail with truncation of 40 carboxyl-terminal amino acids (mouse hepatitis coronavirus strain A59, UniProt P04386 1-147). Briefly: binary yeast 2-hybrid.
For assay [2], the target named is MHV M cytoplasmic tail (amino acids 105-228), GAL4-BD fusion (mouse hepatitis coronavirus strain A59, UniProt P04386 1-147). Briefly: binary yeast 2-hybrid.

B1: pAD-MYO5B(ABCDE) (other)
chain: GSPDSYSLLLNQLKLAHEELEVRKEEVLILRTQIVSADQRRLAGRNAEPNINARSSWPNSEKHVDQEDAIEAYHGVCQTNSKTEDWGYLNEDGELGLAYQGLKQVARLLEAQLQAQSLEHEEEVEHLKAQLEALKEEMDKQQQTFCQTLLLSPEAQVEFGVQQEISRLTNENLDLKELVEKLEKNERKLKKQLKIYMKKAQDLEA
notes: also called MYO5B ABCDE exons; construct containing just the ABCDE exons
Turning to B1, the binding result in assay [1] is listed as “no binding”.

B2: pAD-MYO5B(ABCE) (other)
chain: GSPDSYSLLLNQLKLAHEELEVRKEEVLILRTQIVSADQRRLAGRNAEPNINARSSWPNSEKHVDQEDAIEAYHGVCQTNRLLEAQLQAQSLEHEEEVEHLKAQLEALKEEMDKQQQTFCQTLLLSPEAQVEFGVQQEISRLTNENLDLKELVEKLEKNERKLKKQLKIYMKKAQDLEA
For the molecule B2, the binding result in assay [2] is “no binding”.
